Laboratory results published in paper PMC7280531 (2020).
Where no end group is shown, it is not given here. [ ]: non-standard residue; d: D form. Ahx = NCCCCCC(=O)O

B1: xStAx-VHLL (peptide)
chain: RRWPQLILDLHVRRVWR[Ahx]ALAPYIP
modifications: staple (positions not given here); not fully specified (C-terminus); also: further groups not given here
B2: β-catenin (natural protein)
chain: MATQADLMELDMAMEPDRKAAVSHWQQQSYLDSGIHSGATTTAPSLSGKGNPEEEDVDTSQVLYEWEQGFSQSFTQEQVADIDGQYAMTRAQRVRAAMFPETLDEGMQIPSTQFDAAHPTNVQRLAEPSQMLKHAVVNLINYQDDAELATRAIPELTKLLNDEDQVVVNKAAVMVHQLSKKEASRHAIMRSPQMVSAIVRTMQNTNDVETARCTAGTLHNLSHHREGLLAIFKSGGIPALVKMLGSPVDSVLFYAITTLHNLLLHQEGAKMAVRLAGGLQKMVALLNKTNVKFLAITTDCLQILAYGNQESKLIILASGGPQALVNIMRTYTYEKLLWTTSRVLKVLSVCSSNKPAIVEAGGMQALGLHLTDPSQRLVQNCLWTLRNLSDAATKQEGMEGLLGTLVQLLGSDDINVVTCAAGILSNLTCNNYKNKMMVCQVGGIEALVRTVLRAGDREDITEPAICALRHLTSRHQEAEMAQNAVRLHYGLPVVVKLLHPPSHWPLIKATVGLIRNLALCPANHAPLREQGAIPRLVQLLVRAHQDTQRRTSMGGTQQQFVEGVRMEEIVEGCTGALHILARDVHNRIVIRGLNTIPLFVQLLYSPIENIQRVAAGVLCELAQDKEAAEAIEAEGATAPLTELLHSRNEGVATYAAAVLFRMSEDKPQDYKKRLSVELTSSLFRTEPMAWNETADLGLDIGAQGEPLGYRQDDPSYRSFHSGGYGQDALGMDPMMEHEMGGHHPGADYPVDGLPDLGHAQDLMDGLPPGDSNQLAWFDTDL
B3: xStAx (peptide)
chain: Ac-RRWPQLILDLHVRRVWR
modifications: staple (positions not given here); not fully specified (C-terminus); also: further groups not given here

Key:
Assay in all cases: ITC
[1] = biological target: B2
[2] = biological target: SAHPA1-VHLL (stapled: side chains of olefin residues (S5, R8) cross-linked by ring-closing metathesis, positions in Figure 1a; 6-aminocaproic acid (Ahx) linker between the stapled peptide and the VHL ligand)
[3] = biological target: SAHPA1 (stapled: side chains of olefin residues (S5, R8) cross-linked by ring-closing metathesis, positions in Figure 1a; N-terminus treated with acetic anhydride (typical protocol))
[4] = biological target: B2

Binder: B1
- Kd [1]: 12 µM

Binder: B2
- Ka [2]: 18100 M⁻¹
- Kd [2]: 55 µM
- Ka [3]: 26400 M⁻¹
- Kd [3]: 38 µM

Binder: B3
- Ka [4]: 27000 M⁻¹
- Kd [1]: 37 µM
